Reference: patent US7025971

Tests used:
[1] = biological target: PapD (wild type) (E. coli) (UniProt P15319); experiment: soluble inhibition ELISA: 25-fold molar excess of peptide, 100 pmol/well PapD, G1′-19′WT-coated wells
[2] = biological target: PapD (wild type) (E. coli) (UniProt P15319); experiment: cell-based or functional assay

Chain of PapD (wild type) (E. coli) (P15319 22-239 limits assumed): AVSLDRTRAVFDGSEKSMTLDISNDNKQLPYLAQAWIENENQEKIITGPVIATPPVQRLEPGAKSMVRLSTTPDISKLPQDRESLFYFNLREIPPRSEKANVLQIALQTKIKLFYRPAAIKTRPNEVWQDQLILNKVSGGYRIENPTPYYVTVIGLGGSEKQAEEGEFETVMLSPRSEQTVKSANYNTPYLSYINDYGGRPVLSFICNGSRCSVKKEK

G2′-21′amide (peptide)
% Inhibition [1]: 0%

MBP/G1′-81′ (from UniProt P0AEX9 27-392)
HA titer [2]: 82 | Piliation percentage [2]: 40%

MBP/G1′-140′ (from UniProt P0AEX9 27-392)
HA titer [2]: 4 | Piliation percentage [2]: 10% | decrease of HA titer [2]: 30 fold
